This is an account of results in paper PMC12583987, “Impact of Hanks Kinase‐Dependent Phosphorylation of CodY on the Physiology and Virulence in Bacillus cereus” (MicrobiologyOpen, 2025).

Common to all, as to experiment: SEC; Superdex 75 column on an Akta Purifier, PBS 1x, 0.5 mL/min; 75 uL (about 150 ug) of each purified protein loaded individually; column calibrated with a low molecular weight kit; oligomer size from the elution volume
Background: SEC sorts molecules by how far they enter the pores of the column.

The target in series [1] is CodY-S215A (Bacillus cereus ATCC 14579), N-terminal (His)6-tagged (Bacillus cereus ATCC 14579) (UniProt Q819X8).
For series [2], the target named is CodY-S215D (Bacillus cereus ATCC 14579), N-terminal (His)6-tagged (Bacillus cereus ATCC 14579) (UniProt Q819X8).
Series [3] deals with the molecule itself.

A word on the stoichiometry N: it is the number of molecules, sites or subunits per partner or assembly. In series [1], “CodY-S215A (Bacillus cereus ATCC 14579), N-terminal (His)6-tagged (from UniProt Q819X8 1-259) (natural protein)” gave a stoichiometry N of 2.

Regarding “CodY-S215D (Bacillus cereus ATCC 14579), N-terminal (His)6-tagged (from UniProt Q819X8 1-259) (natural protein)”, the stoichiometry N in series [2] is 2.

B1: CodY (Bacillus cereus ATCC 14579), N-terminal (His)6-tagged (natural protein)
chain: MELLAKTRKLNALLQSAAGKPVNFREMSDTMCEVIEANVFVVSRRGKLLGYAIHQQIENERMKQMLAERQFPEEYTQSLFNITETSSNLDVNSAYTAFPVENRELFGQGLTTIVPIVGGGERLGTLVLARLGQEFLDDDLILAEYSSTVVGMEILREKAEEIEEEARSKAVVQMAISSLSYSELEAIEHIFEELNGTEGLLVASKIADRVGITRSVIVNALRKLESAGVIESRSLGMKGTYIKVLNDKFLQELAKLKTN
notes: CodY, global transcriptional regulator of Bacillus cereus ATCC 14579; codY PCR-amplified from the chromosome with primers SAT31 + SAT32 and cloned in pQE-30; printed monomer Mw 29.8 kDa; also called CodY WT; wild-type CodY; source: E. coli M15 [pREP4], purified (Ni-NTA, desalted on PD10)
As for B1, the “stoichiometry N” value in series [3] turned out to be 2.
